Results as given in the supplement of paper PMC10567573.

B1: ZNF8 (parent)
chain: SLGRHKRTHTGEKPYTCSVCGKSF
B2: CRYL1 (parent)
chain: RNALENIRKEMKLLEQAGSLKGSL

Variants of: B1
Assay: protein stability index of a GFP-peptide fusion (GPS, HEK-293T) (PSI 1-6); higher = more stable
Settings: c terminus: a fixed tail appended
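Also: lentivirally expressed fusions sorted by FACS into six bins by GFP to DsRed ratio, PSI derived from sequencing read proportions per bin multiplied by bin number.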

Protein stability index, by site and new letter:
R4: G 3.44 | W 2.13 | S 3.19 | M 2.5 | P 2.34 | F 2.57 | I 1.89 | E 4.09 | V 2.5 | N 3.1 | D 3 | C 4.3 | T 3.61 | H 2.85 | Q 2.2
G3: N 2.21 | I 3.15 | C 3.68 | P 3.02 | L 1.21 | E 3.41 | S 1.93 | T 3.28 | M 2.66 | W 1.98 | D 3.32 | A 2.12 | Y 2.79 | R 2.03 | H 4.17 | V 3.78 | K 4.65
L2: G 2.95 | T 3.12 | I 2.99 | M 2.67 | C 4.3 | V 2.8 | N 3.82 | Q 2.25 | E 2.8 | H 4.09 | F 2.61 | P 2.77 | Y 3.26 | R 2.04 | W 2.93 | A 2.71 | D 3.19 | K 3.66
S1: A 2.86 | P 2.72 | T 2.94 | K 3.05 | Q 3.71 | Y 2.42 | H 3.08 | G 2.8 | C 3.6 | D 3.4 | I 2.18 | F 2.21 | W 1.5 | V 2.58 | M 2.46 | L 1.73 | R 2.82 | E 3.94 | N 2.63
H5: G 3.18 | F 1.82 | T 3.06 | V 2.54 | Y 2.72 | I 3.34 | C 3.77 | K 3.01 | E 3.15 | Q 2.84 | W 2.46 | L 2.26 | R 3.03 | N 2.52 | M 2.6 | A 2.5 | D 3.17 | S 2.35 | P 2.78
K6: A 2.68 | D 4.27 | E 3.29 | H 1.97 | C 3.29 | I 2.43 | F 1.82 | G 2.33

Variants of: B2
Assay: as above
Settings: c terminus: a fixed tail appended

Protein stability index, by site and new letter:
L14: Y 3.86 | I 3.47 | Q 4.18 | K 4.03 | P 3.93 | S 3.77 | W 3.17 | D 4.36 | A 3.77 | E 4.88 | F 3.19 | N 4.11 | T 3.79
L13: A 3.89 | Y 2.98 | K 3.87 | S 4.04 | I 3.77 | Q 4.5 | N 3.53 | D 4.12
L20: V 4.17 | P 4.09 | M 2.84 | R 4.17 | N 4.28 | W 2.9 | D 4.16 | C 3.65
N6: V 3.03 | S 3.72 | H 3.38 | T 2.53 | W 2.23 | G 3.79 | M 2.98 | F 1.68 | I 2.45 | D 3.76 | E 3.2
Q16: N 3.75 | M 2.76 | A 2.93 | V 2.89 | Y 2.37 | F 2.71 | I 2.76 | T 3.01 | R 2.86 | L 2.06 | H 3.25 | E 3.75
K9: G 3.61 | Y 2.78 | I 1.48 | C 2.29 | W 1.8 | V 3.78 | M 2.32 | L 1.94 | S 3.61 | Q 3.29 | N 3.12 | R 3.31
M11: L 3.1 | K 2.79 | R 4.01 | T 4.37 | V 3.23 | Q 3.93 | C 3.37 | A 3.4 | P 4.49 | D 4.34 | S 4.92 | H 4.45
G22: M 2.27 | I 1.4 | W 2 | C 2.65 | T 3.77 | D 4.1 | E 3.57 | V 2.15 | F 2.65 | N 3.04 | A 3.21
A3: P 4.1 | M 3.75 | V 2.83 | C 2.45 | S 4.31 | Q 3.9 | T 4.32
S19: Y 2.17 | E 4.14 | F 1.9 | K 3.42 | Q 2.85 | N 3.66 | W 2.03 | P 3.54 | A 2.51 | D 3.71
E10: H 2.68 | M 1.23 | V 2.63 | Q 2.59 | T 2.39 | S 2.33 | D 3.33 | Y 1.08 | L 2.44 | K 2.31 | P 3.06
A17: V 3.58 | H 3.06 | K 3.51 | D 3.97 | R 3.38 | T 3.4 | S 3.72 | N 3.62 | E 3.84 | W 2.33 | P 3.5
L24: M 3.3 | F 3.13 | Y 3.08 | N 3.81 | V 3.66 | D 3.99 | C 4.05 | K 4.12
K12: N 3.36 | F 2.39 | R 3.06 | Q 3.31 | E 3.38 | A 3.46 | T 3.54 | Y 3.75 | H 3.46 | C 3.43 | I 3.46
E5: N 2.46 | K 2.7 | G 3.21 | H 2.88 | R 3.06 | D 3.85 | C 2.98 | S 2.78
S23: D 3.48 | F 2.64 | M 2.27 | Q 3.32 | A 2.9 | G 3.4 | V 2.2 | Y 2.73 | W 1.95 | C 3.08
G18: P 4.33 | H 3.08 | R 3.23 | K 3.52 | W 2.37 | S 3.41 | E 3.58 | D 3.64 | N 3.84 | L 1.83
N2: L 2.88 | S 2.85 | C 2.72 | H 3.49 | E 3.65 | P 4.16 | A 3.1 | Y 2.48 | T 2.92 | G 3.57 | K 2.83 | M 3.05 | Q 3.39
K21: F 2.35 | V 2.73 | C 3.3 | Y 2.78 | N 3.34 | G 2.56 | S 3.46 | D 3.55 | L 2.37 | R 2.68 | A 2.71 | I 2.4
R8: Y 2.45 | T 4.19 | P 4.29 | C 2.84 | N 4.19 | F 2.07 | G 3.77 | M 2.92 | Q 3.92 | E 2.58 | V 3.25 | S 3.87
R1: E 3.65 | V 3.53 | F 2.46 | L 3.21 | S 3.48 | A 2.86 | H 3.47 | W 3.34
L4: N 4.39 | S 4.36 | K 3.67 | D 5 | Q 4.75 | M 3.37 | F 2.92 | T 4.37
I7: T 3.9 | S 3.69 | K 5.08 | V 3.53 | H 3.74
E15: N 3.16 | I 1.71 | Y 2.21 | G 3.05 | H 2.77 | S 2.58 | P 3.37
